Common to all, as to experiment: co-IP; recombinant CwlM (PknB-phosphorylated or non-phosphorylated) and the other recombinant protein, 10 μg each, in 20 mM KH2PO4 pH 7.0, 100 mM NaCl, 10 mM KCl, with anti-CwlM-IgG-Sepharose; bound and unbound on SDS-PAGE, Coomassie; densitometry as percent of the total amount used
The target of assay [1] is Recombinant 6xHis-tagged CwlM, non-phosphorylated (M. tuberculosis) (UniProt L7N653).
Assay [2] concerns the target Recombinant 6xHis-tagged CwlM, PknB-phosphorylated (M. tuberculosis) (UniProt L7N653).
Assay [3] concerns the target T1, Recombinant 6xHis-tagged CwlM, non-phosphorylated (M. tuberculosis, UniProt L7N653 1-406).
T1 construct: also called non-phosphorylated recombinant CwlM; non-phosphorylated CwlM
T1 sequence: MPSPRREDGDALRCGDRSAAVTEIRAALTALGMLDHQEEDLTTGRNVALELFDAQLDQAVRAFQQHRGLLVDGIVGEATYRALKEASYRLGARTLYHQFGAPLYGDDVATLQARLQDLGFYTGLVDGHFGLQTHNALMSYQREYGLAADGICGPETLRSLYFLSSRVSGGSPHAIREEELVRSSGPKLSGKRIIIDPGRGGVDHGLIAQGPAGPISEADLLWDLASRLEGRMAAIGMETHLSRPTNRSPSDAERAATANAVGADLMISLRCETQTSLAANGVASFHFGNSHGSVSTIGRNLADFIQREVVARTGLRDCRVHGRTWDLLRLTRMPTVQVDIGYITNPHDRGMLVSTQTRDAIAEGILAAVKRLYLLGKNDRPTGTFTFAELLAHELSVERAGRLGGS
The note with it: both partners purified.

From paper PMC6180346, “Two Faces of CwlM, an Essential PknB Substrate, in Mycobacterium tuberculosis” (Cell Reports, 2018) come the findings set out here.

“Recombinant 6XHis-tagged MurJ ICD (domain or fragment)”: the percent co-precipitated turned out to be 85% in assay [1] and 12% in assay [2].

B1: Recombinant 6xHis-tagged 6xHis-MurJ_(E541-F680) (domain or fragment)
chain: EARAALDAVRARIRSRRLKTGPQTQNVLDQSSRPGPVTYPERRRLAPPRGKSVVHEPIRRRPPEQVARAGRAKGPEVIDRPSENASFGAASGAELPRPVADELQLDAPAGRDPGPVSRPHPSDLQNGDLPADAARGPIAF
notes: The N-terminal end of the tag is read from the printed name 6xHis-MurJ_(E541-F680); also called MurJ linker; linker region (E541-F680)
On to B1, for which the binding result in assay [3] was “binds”.
